B1: SD4 monoclonal antibody (human IgG1) (antibody, V domains shown)
VH: QVQLVESGGGVVQPGRSLRLSCAASGFPFSGYGMHWVRQAPGKGLEWVAVISYDGSEKNYADSVKGRFTISRDNSKNTLYLQMNSLRVEDTAVYYCAKDRDYYGSGFYDYWGQGTLVTVSS
VL: DIQMTQSPSSLSASVGDRVTITCQASQHISNHLNWYQQKPGTAPTLLIYEASNLETGVPSRFSGSGSGTDFSFTISSLRPEDFATYYCQQYDNFPLTFGPGTTMDIK
notes: also called mAb SD4
B2: SD12 monoclonal antibody (human IgG1) (antibody, V domains shown)
VH: EVQLLESGGGLVQPGGSLRLSCAASGFIFSSYAMSWVRQAPGKGLEWVSAISGSGGSTYYADSVKGRFTISRDNSKNTLYLQMNSLRDEDTAVYYCAKDRSYVSSGFFDDWGQGTLVTVSS
VL: DIQMTQSPSSLSASVGDRVTITCQASQDISNYLNWYQQRPGKAPKLLIFEASNLETGVPSRFSGSGSGTDFTFTISSLQPEDIATYYCQQYENLLYTFGQGTKLEIK
notes: IgG1; also called mAb SD12
B3: SD22 monoclonal antibody (human IgG1) (antibody, V domains shown)
VH: QVQLVESGGGVVQPGRSLRLSCAASGFTFSGFGMHWVRQAPGKGLEWVALISYDGSDTYYSDSVKGRFTISRDNSKNTLYLQLKSLRPDDTAVYYCVGDRDYFGSGFFDHWGQGTLVTVSS
VL: DIQMTQSPSSLSASIGDRVTITCRASRHITNHLNWYQHKPGRAPKLLIYEASNLQAGVPSRFSGSGSGTDFTFTISSLQPEDFATYYCQQYDNLPPAFGGGTKVDIK
notes: IgG1; germline IGHV3-30; also called mAb SD22
B4: SD4 Fab (Fab, V domains shown)
VH: QVQLVESGGGVVQPGRSLRLSCAASGFPFSGYGMHWVRQAPGKGLEWVAVISYDGSEKNYADSVKGRFTISRDNSKNTLYLQMNSLRVEDTAVYYCAKDRDYYGSGFYDYWGQGTLVTVSS
VL: DIQMTQSPSSLSASVGDRVTITCQASQHISNHLNWYQQKPGTAPTLLIYEASNLETGVPSRFSGSGSGTDFSFTISSLRPEDFATYYCQQYDNFPLTFGPGTTMDIK
notes: source: purified
B5: SD22 Fab (Fab, V domains shown)
VH: QVQLVESGGGVVQPGRSLRLSCAASGFTFSGFGMHWVRQAPGKGLEWVALISYDGSDTYYSDSVKGRFTISRDNSKNTLYLQLKSLRPDDTAVYYCVGDRDYFGSGFFDHWGQGTLVTVSS
VL: DIQMTQSPSSLSASIGDRVTITCRASRHITNHLNWYQHKPGRAPKLLIYEASNLQAGVPSRFSGSGSGTDFTFTISSLQPEDFATYYCQQYDNLPPAFGGGTKVDIK
notes: source: purified
B6: SD4-S monoclonal antibody (human IgG1) (antibody, V domains shown)
VH: QVQLVESGGGVLQPGRSLRLSCAASGFTFSGYGMHWVRQAPGKGLEWVAVISYDGSEKNYGDSVKGRFTISRDNSKNTLYLQINSLRTEDRAVYYCAKDRDYFGSGFFDYWGQGTLVTVSS
VL: DIQMTQSPSSLSASVGDRVTITCQASQDITKYLNWYQQKPGKAPKLLIFEASNLETGVPSRFSGSGSGTDFTFTISSLQPEDFATYYCQQYGDFPLTFGGGTKVEIK
B7: SD12 Fab (Fab, V domains shown)
VH: EVQLLESGGGLVQPGGSLRLSCAASGFIFSSYAMSWVRQAPGKGLEWVSAISGSGGSTYYADSVKGRFTISRDNSKNTLYLQMNSLRDEDTAVYYCAKDRSYVSSGFFDDWGQGTLVTVSS
VL: DIQMTQSPSSLSASVGDRVTITCQASQDISNYLNWYQQRPGKAPKLLIFEASNLETGVPSRFSGSGSGTDFTFTISSLQPEDIATYYCQQYENLLYTFGQGTKLEIK
notes: source: purified
B8: SD4-X monoclonal antibody (human IgG1) (antibody, V domains shown)
VH: QVQLVESGGGVVQPGRSLRLSCAASGFTFSSYGMHWVRQAPGKGLEWVAVISYDGSNKYYADSVKGRFTISRDNSKNTLYLQMNSLRAEDTAVYYCAKDRDYYGSGFFDYWGQGTLVTVSS
VL: DIQMTQSPSSLSASVGDRVTITCQASQDISNHLNWYQEKPGKVPKLLIYEASNVETGVPSRFSGSGSGTDFTFTISSLQPEDIATYYCQQYDNLPYTFGQGTKLEIK

Experiments:
Conditions in all cases: both partners purified
[1] = target: T1, SFTSV Gn head (positions 19-337), J1 genotype (KU18-5/Japan) (SFTSV (Dabie bandavirus), strain …, strain); assay: SPR
T1 construct: source: HEK293F cells (Sino Biological), purified (HisTrap, size exclusion)

[2] = target: T2, SFTSV Gn head (positions 19-337), C3 genotype (SDTA1/China) (SFTSV (Dabie bandavirus), strain SDTA1, …, UniProt A0A1S6K8S9, strain); assay: SPR
T2 construct: source: HEK293F cells (Sino Biological), purified (HisTrap, size exclusion)

[3] = target: T3, SFTSV Gn head (positions 19-337), C2 genotype (P24-Vero_2021/China) (SFTSV (Dabie bandavirus), strain …, strain); assay: SPR
T3 construct: source: HEK293F cells (Sino Biological), purified (HisTrap, size exclusion)

[4] = target: SFTSV Gn glycoprotein (G19-K452, C3 genotype) (SFTSV (Dabie bandavirus), strain SDTA1, …, UniProt A0A1S6K8S9, strain); assay: BLI
[5] = target: T4, SFTSV Gn head (as crystallised with the Fabs) (SFTSV (Dabie bandavirus), strain SDTA1, …); assay: crystal structure
T4 construct: also called Gn protein

Binder | Kd [1] [nM] | Kd [2] [nM] | Kd [3] [nM] | binding result [5] | other results
B1 | 0.0628 | 0.0827 | 0.0321 | – | Kd [4]: 0.096 nM
B2 | 60.2 | 87.8 | 74.1 | – | –
B3 | 0.0557 | 0.0542 | 0.0515 | – | –
B4 | – | – | – | binds | –
B5 | – | – | – | binds | –
B6 | – | – | – | – | binding result [4]: binds
B7 | – | – | – | binds | –
B8 | – | – | – | – | binding result [4]: binds

From publication PMC12282080, “Molecular mechanism of potently neutralizing human monoclonal antibodies against severe fever with thrombocytopenia virus infection” (Journal of Virology, 2025)
